Experiments:
[1] = target: the molecule itself; assay: AUC; sedimentation equilibrium at 16,000, 18,000 and 20,000 rpm, absorbance at 260 nm; 10 uM monomeric NsrR with 2 uM 30 bp double-stranded oligonucleotide (hmpA2 or hmpA1 binding site); 50 mM Tris pH 8.0 (legend: pH 7.0), 100 mM NaCl, 1 mM dithiothreitol; one-component fit; the mass of the DNA-protein complex is measured
[2Fe-2S] NsrR (holo) [2] = target: T1, [2Fe-2S] NsrR (holo) (Streptomyces coelicolor, UniProt Q9L132 1-148); assay: analytical ultracentrifugation (sedimentation equilibrium); [2Fe-2S] cluster; 2 uM DNA, 10 uM NsrR; mass 45.0 kDa with NsrR; EMSA: 10 mM Tris-HCl pH 7.5, 60 mM KCl, on ice 2 min, ~20 ng probe, NsrR diluted to 500 nM in 50 mM Tris pH 7.0 (legend: 50 mM Tris pH 7.0, 100 mM NaCl); AUC: 5; settings: protein: recombinant; tags: none stated (pET21a; reverse primer includes the stop codon); chain copies: 2; blunt
T1 sequence: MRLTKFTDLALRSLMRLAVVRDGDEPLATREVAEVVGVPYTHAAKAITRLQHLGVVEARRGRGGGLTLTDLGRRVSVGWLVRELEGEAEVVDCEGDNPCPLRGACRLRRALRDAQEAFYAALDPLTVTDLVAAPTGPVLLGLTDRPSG

[2Fe-2S] NsrR (holo) [3] = target: T1, [2Fe-2S] NsrR (holo); assay: analytical ultracentrifugation (sedimentation equilibrium); [2Fe-2S] cluster; 2 uM DNA, 10 uM NsrR; mass 17.4 to 47.3 kDa, homodimer; EMSA: 10 mM Tris-HCl pH 7.5, 60 mM KCl, on ice 2 min, ~20 ng probe, NsrR diluted to 500 nM in 50 mM Tris pH 7.0 (legend: 50 mM Tris pH 7.0, 100 mM NaCl); AUC: 5; settings: protein: recombinant; tags: none stated (pET21a; reverse primer includes the stop codon); chain copies: 2; blunt
[2Fe-2S] NsrR (holo) [4] = target: T1, [2Fe-2S] NsrR (holo); assay: analytical ultracentrifugation (sedimentation equilibrium); [2Fe-2S] cluster; 2 uM DNA, 10 uM NsrR; EMSA: 10 mM Tris-HCl pH 7.5, 60 mM KCl, on ice 2 min, ~20 ng probe, NsrR diluted to 500 nM in 50 mM Tris pH 7.0 (legend: 50 mM Tris pH 7.0, 100 mM NaCl); AUC: 5; settings: protein: recombinant; tags: none stated (pET21a; reverse primer includes the stop codon); chain copies: 2; blunt

B1: NsrR from Streptomyces coelicolor ([2Fe-2S] NsrR) (natural protein, UniProt Q9L132 1-148, looked up)
chain: MRLTKFTDLALRSLMRLAVVRDGDEPLATREVAEVVGVPYTHAAKAITRLQHLGVVEARRGRGGGLTLTDLGRRVSVGWLVRELEGEAEVVDCEGDNPCPLRGACRLRRALRDAQEAFYAALDPLTVTDLVAAPTGPVLLGLTDRPSG
notes: NsrR (SCO7427), Rrf2 family transcriptional repressor of Streptomyces coelicolor; nsrR gene amplified from genomic DNA with primers from the start codon (CATATG...) to the stop codon (TCA... on the reverse primer); calculated monomer mass 15.9 kDa; Carries a [2Fe-2S] cluster as purified (on average 28% cluster incorporation); also called SCO7427; holo [2Fe-2S]; NsrR
[1]
  stoichiometry N: 2

B2: hmpA1 30 bp oligonucleotide (dsDNA)
DNA 1: CTAAAACACGAATATCATCTACCAATTAAG
DNA 2: CTTAATTGGTAGATGATATTCGTGTTTTAG
[2Fe-2S] NsrR (holo) [2]
  binding result: binds

B3: hmpA2 30 bp oligonucleotide (dsDNA)
DNA 1: GGAAAACAAGCATCTGAGATCCCAGTTCGG
DNA 2: CCGAACTGGGATCTCAGATGCTTGTTTTCC
[2Fe-2S] NsrR (holo) [3]
  binding result: binds

B4: Control oligonucleotide (nsrR coding sequence) (dsDNA)
DNA 1: CCGCCTGCAGGCCCTGGGTGTG
DNA 2: CACACCCAGGGCCTGCAGGCGG
[2Fe-2S] NsrR (holo) [4]
  binding result: no binding

Source: article PMC2577008, “The Transcriptional Repressor Protein NsrR Senses Nitric Oxide Directly via a [2Fe-2S] Cluster” (PLoS ONE, 2008)
